T1: HA-tagged full-length human LGR7 expressed on cells (HA-LGR7/DG44, HA-LGR7/BaF3) (human, UniProt Q9HBX9 1-757)
T1 construct: Full-length human LGR7 with an N-terminal HA tag, forcedly expressed in DG44 (CHO-derived) or Ba/F3 cells; also called HA-LGR7/DG#24; HA-LGR7/DG44#24
T1 sequence: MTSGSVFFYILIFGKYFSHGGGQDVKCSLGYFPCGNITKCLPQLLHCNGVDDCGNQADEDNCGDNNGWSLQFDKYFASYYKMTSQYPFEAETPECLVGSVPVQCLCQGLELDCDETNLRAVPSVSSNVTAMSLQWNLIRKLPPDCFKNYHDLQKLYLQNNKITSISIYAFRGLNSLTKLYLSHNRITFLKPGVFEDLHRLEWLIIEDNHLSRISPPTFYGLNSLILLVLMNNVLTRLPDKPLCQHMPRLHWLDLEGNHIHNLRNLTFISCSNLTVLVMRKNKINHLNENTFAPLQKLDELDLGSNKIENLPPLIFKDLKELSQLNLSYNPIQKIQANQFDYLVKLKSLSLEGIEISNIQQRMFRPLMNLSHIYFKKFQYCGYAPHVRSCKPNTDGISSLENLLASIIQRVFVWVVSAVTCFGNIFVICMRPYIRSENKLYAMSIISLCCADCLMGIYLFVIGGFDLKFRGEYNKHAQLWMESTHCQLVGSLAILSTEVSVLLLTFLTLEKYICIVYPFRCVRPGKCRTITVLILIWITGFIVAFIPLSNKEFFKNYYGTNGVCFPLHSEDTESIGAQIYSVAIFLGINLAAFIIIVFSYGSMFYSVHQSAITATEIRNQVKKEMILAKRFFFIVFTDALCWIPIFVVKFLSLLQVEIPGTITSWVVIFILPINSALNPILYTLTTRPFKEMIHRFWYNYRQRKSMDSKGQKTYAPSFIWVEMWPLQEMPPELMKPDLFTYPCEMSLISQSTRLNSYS

B1: 22DA17 (antibody, IgG2b, V domains shown)
VH: QVQLQQSGAELVRPGVSVKLSCKASGYSLTTYWMNWVKQRPGQGLEWIGMIHPSDSETVINQKFKDKATLTVDKSSSTAYMQLSSPTSEDSAVYYCARWDYDYYFDYWGQGTTLTVSS
VL: DVLMTQTPLSLPVSLGDQASISCRSSQSIVHSNGNTYLEWYLQKPGQSPNLLIYKVSNRFSGVPDRFSGSGSGTDFTLKISRVEAEDLGVYYCFQGSHVPFTFGSGTKLEIK
notes: Mouse hybridoma antibody, isotype IgG2b; also called Bio-22DA17 (biotinylated form)
B2: 22SD7 (antibody, IgG2a, V domains shown)
VH: QVQLQQPGAELVRPGASVKLSCKASGYTFTSYWMNWVKQRPEQGLEWIGRIDPYDSETHYNQKFKDKAILTVDKSSSTAYMQLSSLTSEDSAVYYCARWEVVAPWDYWGQGTTLTVSS
VL: DIVMTQAAPSVPVTPGESVSISCRSSKSLLHSNGNTYLYWFLQRPGQSPQLLIYRMSNLASGVPDRFSGSGSGTAFTLRISRVEAEDVGVYYCMQHLEYPWTFGGGTKLEIK
notes: Mouse hybridoma antibody, isotype IgG2a; also called anti-LGR7 monoclonal antibody 22SD7
B3: 22DA23 (antibody, IgG1, V domains shown)
VH: EIQLQQSRPELVRPGASVKVSCQASGYAFTNYNMYWVKQSHGKSLEWIGYIDPYNDDTTYNQKFKGKATLTVDKSSSTAYMHLNSLTSEDSAVFYCARFRLGYYAMDYWGQGASVTVSS
VL: DIVLTQSPASLAVSLGQRATISCKASQSVDYDLDSYMNWYQQKPGQPPKLLIYVASNLESGIPARFSGSGSGTDFTLNIHPVEEEDAATYYCQQSNEDPFTFGSGTKLEIK
notes: Mouse hybridoma antibody, isotype IgG1; also called anti-human LGR7 monoclonal antibody 22DA23

Target: T1, HA-tagged full-length human LGR7 …
Assay: flow cytometry, hybridoma supernatant on LGR7-expressing DG44 cells against parental DG44 cells
Experimental: The binding of the obtained hybridomas to human LGR7/DG44 cells was evaluated by flow cytometry. The cell line expressing human LGR7 suspended in FACS buffer (2% FBS/PBS/0.05% NaN₃) was diluted to 1×10⁶ cells/mL using FACS buffer, and this was aliquoted into a Falcon 353910 round-bottom 96-well plate at 50 μL/well. The hybridoma culture supernatant diluted to a suitable concentration was added to the wells containing the cells, and this was reacted for 60 minutes on ice. Next, the cells were rinsed once with FACS buffer. As a secondary antibody, a goat F(ab′)₂ fragment anti-mouse IgG Fcγ-FITC (Beckman Coulter) was added to the wells containing the cells, and this was reacted for 30 minutes on ice. After the reaction, the supernatant was removed by centrifugation, and the cells were suspended in 100 μL of FACS buffer, and subjected to flow cytometry. The FACS Calibur (Becton Dickinson) was used for the flow cytometry. A gate for the viable cell population was established using a forward scatter/side scatter dot blot, and an FL1 histogram was produced for the cells included in the population, and their binding activity was evaluated.
The hybridoma supernatants were reacted with DG44 cells induced to express LGR7 and the parental DG44 cells, respectively. Thus, hybridomas that specifically react with LGR7-expressing cells were obtained. The hybridomas from the wells were made into single clones by the limiting dilution method. The isotype of each antibody was analyzed using an IsoStrip® mouse monoclonal antibody isotyping kit (Roche Diagnostics). As a result, the isotype of 22DA6, 22DA7, 22DA11, 22DA12, 22DA23, and 22DA24 is IgG1; and the isotype of 22DA4, 22DA10, 22SD7, 22SD25, 22SD31, and 22SD48 is IgG2a; and the isotype of 22DA17 and 22DA20 is IgG2b. Expansion culture of a single-clone hybridoma was performed, and then the antibody was purified from the culture supernatant using a protein G column according to the manual. The purified antibody was subjected to protein quantification by DC Protein Assay, etc.

| Binder | binding result |
| --- | --- |
| B1 | binds |
| B2 | binds |
| B3 | binds |
